This passage reports ATPase activity of FleQ (1 μM) left with 100 μM C-terminal peptide of FleN results from article PMC8528422.

The assay deals with FleQ, full length (FleQFL) (Pseudomonas aeruginosa) (UniProt G3XCV0).
Sequence of FleQ, full length (FleQFL) (Pseudomonas aeruginosa) (G3XCV0 whole entry): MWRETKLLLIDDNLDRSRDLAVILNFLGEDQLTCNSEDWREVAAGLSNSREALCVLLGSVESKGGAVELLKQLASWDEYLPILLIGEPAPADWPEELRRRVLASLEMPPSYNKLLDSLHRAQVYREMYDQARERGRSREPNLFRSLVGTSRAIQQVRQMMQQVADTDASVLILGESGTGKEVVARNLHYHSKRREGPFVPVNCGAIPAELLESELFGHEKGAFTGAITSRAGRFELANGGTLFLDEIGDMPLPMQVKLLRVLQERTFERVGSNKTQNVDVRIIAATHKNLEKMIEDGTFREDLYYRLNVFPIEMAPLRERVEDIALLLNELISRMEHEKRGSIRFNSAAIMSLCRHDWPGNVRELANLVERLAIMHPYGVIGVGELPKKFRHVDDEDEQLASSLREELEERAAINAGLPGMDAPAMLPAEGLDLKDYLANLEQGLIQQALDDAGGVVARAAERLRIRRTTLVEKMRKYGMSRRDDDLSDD

In the case of PANPRGHLEFFVERLVQHPATGSAV [C-terminal peptide of FleN comprising the last 25 amino acids], the ATPase activity of FleQ (1 μM) left with 100 μM C-terminal peptide of FleN was 66%.
